What was measured:
[1] = target: T1, human MCAM (antigen of the BLI kinetics in Example 7) (human, UniProt P43121 24-559, limits assumed); assay: BLI, ForteBio Octet QK, apparent KD
T1 chain: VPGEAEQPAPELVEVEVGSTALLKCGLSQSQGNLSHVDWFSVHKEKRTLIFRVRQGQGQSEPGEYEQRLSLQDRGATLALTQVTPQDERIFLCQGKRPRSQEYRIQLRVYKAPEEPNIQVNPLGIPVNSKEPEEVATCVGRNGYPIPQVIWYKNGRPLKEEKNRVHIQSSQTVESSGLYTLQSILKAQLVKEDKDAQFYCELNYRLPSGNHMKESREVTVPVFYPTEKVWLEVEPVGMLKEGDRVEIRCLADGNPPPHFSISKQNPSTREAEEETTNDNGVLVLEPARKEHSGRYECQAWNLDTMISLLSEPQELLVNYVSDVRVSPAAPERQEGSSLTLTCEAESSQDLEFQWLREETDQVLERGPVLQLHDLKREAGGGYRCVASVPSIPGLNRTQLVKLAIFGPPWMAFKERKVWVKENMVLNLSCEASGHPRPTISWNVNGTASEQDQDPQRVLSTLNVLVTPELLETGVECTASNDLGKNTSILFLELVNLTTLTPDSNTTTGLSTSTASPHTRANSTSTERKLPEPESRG
Description: (§1) Apparent ka, apparent kd and apparent KD are binding kinetic parameters obtained using ForteBio assay formats.

[2] = target: T1, human MCAM (antigen of the BLI kinetics …); assay: BLI, ForteBio Octet QK, apparent kd
Description: as §1

[3] = target: T2, human MCAM, full length, expressed on transfected cells (human, UniProt P43121 24-646); assay: flow cytometry, blocking of recombinant human laminin 411 (20 ug/ml) binding to CHO cells expressing human MCAM
T2 construct: also called CD146; MUC18
T2 chain: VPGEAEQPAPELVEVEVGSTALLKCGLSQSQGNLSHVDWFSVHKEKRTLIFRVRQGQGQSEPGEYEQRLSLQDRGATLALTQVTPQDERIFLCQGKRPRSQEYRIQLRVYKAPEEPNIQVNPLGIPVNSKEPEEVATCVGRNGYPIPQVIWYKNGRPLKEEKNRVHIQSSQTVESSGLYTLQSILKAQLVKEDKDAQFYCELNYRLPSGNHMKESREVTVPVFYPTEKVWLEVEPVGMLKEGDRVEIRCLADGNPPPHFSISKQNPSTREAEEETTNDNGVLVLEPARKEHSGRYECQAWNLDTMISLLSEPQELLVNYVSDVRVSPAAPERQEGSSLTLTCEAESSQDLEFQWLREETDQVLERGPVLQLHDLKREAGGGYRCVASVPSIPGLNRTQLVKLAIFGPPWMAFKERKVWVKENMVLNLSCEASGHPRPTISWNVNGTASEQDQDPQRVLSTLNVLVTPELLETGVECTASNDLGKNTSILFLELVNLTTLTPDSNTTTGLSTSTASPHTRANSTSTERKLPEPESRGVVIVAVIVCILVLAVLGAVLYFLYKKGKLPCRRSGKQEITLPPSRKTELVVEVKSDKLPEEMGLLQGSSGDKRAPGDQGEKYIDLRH
Procedure: The 87 independent mouse fusion clones and 26 independent rat fusion clones described in Example 1 above as being capable of (i) binding to human MCAM, and (ii) blocking the interaction between human MCAM and the α-4 chain of laminin were further characterized as follows. First, IC50 quantitation for the ability of the monoclonal antibody to block the binding of human MCAM to the α-4 chain of laminin was determined as follows. CHO cells expressing human MCAM were incubated with an anti-human MCAM antibody (at various concentrations) for 30 minutes at 4 degrees Celsius. […] Unbound laminin was then washed away, and the laminin bound to the surface of the cells was detected with fluorescently labeled anti-laminin antibodies. After washing, the amount of laminin bound to the surface was detected by flow cytometry, and IC50s were calculated based on the mean fluorescent intensity.
Amino acid and nucleic acid sequences of the heavy and light chains of these antibodies, and their hypervariable regions, are provided in SEQ ID NOs:29-92. […] As such, each of these specific monoclonal antibodies was very capable of binding to human MCAM and inhibiting the interaction of cell-expressed human MCAM with its α-4 laminin binding ligand.

[4] = target: T3, human MCAM V340A mutant (shotgun mutagenesis library, on BHK cells) (human, UniProt P43121 24-646); assay: shotgun mutagenesis library, immunofluorescence on BHK cells, triplicate, background-subtracted and normalized to WT
T3 chain: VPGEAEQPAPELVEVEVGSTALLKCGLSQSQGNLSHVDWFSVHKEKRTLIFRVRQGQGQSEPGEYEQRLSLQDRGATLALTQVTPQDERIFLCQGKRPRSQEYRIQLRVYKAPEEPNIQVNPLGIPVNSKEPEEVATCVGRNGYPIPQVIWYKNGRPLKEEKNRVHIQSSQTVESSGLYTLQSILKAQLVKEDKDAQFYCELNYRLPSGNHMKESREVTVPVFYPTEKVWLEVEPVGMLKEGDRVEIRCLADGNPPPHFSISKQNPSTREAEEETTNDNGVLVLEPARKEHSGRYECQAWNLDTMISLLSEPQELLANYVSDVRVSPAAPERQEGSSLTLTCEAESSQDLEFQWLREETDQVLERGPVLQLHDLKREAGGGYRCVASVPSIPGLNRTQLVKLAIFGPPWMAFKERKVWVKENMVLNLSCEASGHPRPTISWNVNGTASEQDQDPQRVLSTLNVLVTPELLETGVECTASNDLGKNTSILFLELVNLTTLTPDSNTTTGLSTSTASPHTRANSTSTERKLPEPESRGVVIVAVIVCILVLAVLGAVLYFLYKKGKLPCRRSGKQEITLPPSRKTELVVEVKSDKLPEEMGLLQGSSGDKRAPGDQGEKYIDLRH
Procedure: The mutation library was assayed for surface expression (mouse sera binding) and monoclonal antibody binding, in triplicate. Each raw data point was background-subtracted and normalized to the wild type MCAM reactivity values. The mean monoclonal antibody binding value for each clone is plotted as a function of its mean surface expression value (FIG. 1, gray diamonds). Thresholds of <30% monoclonal antibody reactivity and >50% mouse sera binding were applied to identify clones (FIG. 1, black diamonds) that were negative for monoclonal antibody binding but positive for surface expression.
Residues involved in antibody binding were identified as those that were negative for monoclonal antibody binding (<30% WT) but positive for surface expression (>50% WT) (Table 4). The mean reactivity (and standard deviation) were determined for each critical residue.

B1: mouse anti-human MCAM monoclonal antibody clone 1749.1.3 (antibody, V domains shown)
VH: DVKLVESGGDLVKPGGSLKLSCAASGFTFSSYIMSWVRQTPEKRLEWVATISSGGSSTYYPDSVKGRFTISRDNAKNTLYLQMSSLKSEDTAMYYCTRDDDYDVKVFAYWGQGTLVTVSA
VL: DIVMSQSPSSLAVSAGEKVTMNCKSSRSLLNSRIRKNYLAWYQQKPGQSPKLLIYWASTRESGVPDRFTGSGSGTDFTLTISSVQAEDLAVYYCKQSYNLLTFGAGTKLELK
notes: Mouse hybridoma monoclonal antibody; also called m1749
In the case of B1, the Kd [1] is reported as 0.286 nM, the koff [2] is reported as 0.000402 s⁻¹ and the IC50 [3] is reported as 0.545 µg/mL. The “mean reactivity (% of wild type MCAM), standard deviation in brackets” value [4] was 8.7 % of WT.

Source: patent US20170129954A1 (PROTHENA BIOSCIENCES, published 2017)
